# Measured values taken from article PMC4578769, “Development of a Fluorescence-based Trypanosoma cruzi CYP51 Inhibition Assay for Effective Compound Triaging in Drug Discovery Programmes for Chagas Disease” (PLoS Neglected Tropical Diseases, 2015).
# B1: T. cruzi CYP51 (Trypanosoma cruzi strain CL Brener) (protein)
# chain: MFIEAIVLALTALILYSVYSVKSFNTTRPTDPPVYPVTVPFLGHIVQFGKNPLEFMQRCKRDLKSGVFTISIGGQRVTIVGDPHEHSRFFSPRNEILSPREVYTIMTPVFGEGVAYAAPYPRMREQLNFLAEELTIAKFQNFVPAIQHEVRKFMAENWKEDEGVINLLEDCGAMIINTACQCLFGEDLRKRLNARHFAQLLSKMESSLIPAAVFMPWLLRLPLPQSARCREARAELQKILGEIIVAREKEEASKDNNTSDLLGGLLKAVYRDGTRMSLHEVCGMIVAAMFAGQHTSTITTSWSMLHLMHPKNKKWLDKLHKEIDEFPAQLNYDNVMDEMPFAERCVRESIRRDPPLLMVMRMVKAEVKVGSYVVPKGDIIACSPLLSHHDEEAFPNPRLWDPERDEKVDGAFIGFGAGVHKCIGQKFALLQVKTILATAFREYDFQLLRDEVPDPDYHTMVVGPTLNQCLVKYTRKKKLPS
# notes: ompA leader (N); host or cells: E. coli JM109 (membrane fraction, bactosomes)
# Substrate: N#Cc1cc2ccc(OCOCc3ccccc3)cc2oc1=O
# Experiment: Michaelis-Menten kinetic determination of BOMCC O-dealkylation
# Assay type: biochemical, Trypanosoma cruzi
# Details: other: 37 pmoles/mL T. cruzi CYP51 enzyme, 25-250 μM BOMCC, 37°C
# Description: Incubations were pre-warmed at 37°C before addition of NADPH regenerating system. Production of CHC was measured at 1 minute intervals at 37°C (Exc 410 nm, Em 460 nm) for 10 minutes (Fig 3b). […] Assay conditions of 37 pmoles/mL of T. cruzi CYP51 in bactosomes and 100 μM BOMCC provided a good dynamic range of metabolism.
protein,measurement,value
B1,Km,191 ± 55 µM
